Molecular target: genetically encoded FRET-based MMP-9 activity biosensor with α-helical linker, P09619
Sequence (P09619 whole entry, looked up): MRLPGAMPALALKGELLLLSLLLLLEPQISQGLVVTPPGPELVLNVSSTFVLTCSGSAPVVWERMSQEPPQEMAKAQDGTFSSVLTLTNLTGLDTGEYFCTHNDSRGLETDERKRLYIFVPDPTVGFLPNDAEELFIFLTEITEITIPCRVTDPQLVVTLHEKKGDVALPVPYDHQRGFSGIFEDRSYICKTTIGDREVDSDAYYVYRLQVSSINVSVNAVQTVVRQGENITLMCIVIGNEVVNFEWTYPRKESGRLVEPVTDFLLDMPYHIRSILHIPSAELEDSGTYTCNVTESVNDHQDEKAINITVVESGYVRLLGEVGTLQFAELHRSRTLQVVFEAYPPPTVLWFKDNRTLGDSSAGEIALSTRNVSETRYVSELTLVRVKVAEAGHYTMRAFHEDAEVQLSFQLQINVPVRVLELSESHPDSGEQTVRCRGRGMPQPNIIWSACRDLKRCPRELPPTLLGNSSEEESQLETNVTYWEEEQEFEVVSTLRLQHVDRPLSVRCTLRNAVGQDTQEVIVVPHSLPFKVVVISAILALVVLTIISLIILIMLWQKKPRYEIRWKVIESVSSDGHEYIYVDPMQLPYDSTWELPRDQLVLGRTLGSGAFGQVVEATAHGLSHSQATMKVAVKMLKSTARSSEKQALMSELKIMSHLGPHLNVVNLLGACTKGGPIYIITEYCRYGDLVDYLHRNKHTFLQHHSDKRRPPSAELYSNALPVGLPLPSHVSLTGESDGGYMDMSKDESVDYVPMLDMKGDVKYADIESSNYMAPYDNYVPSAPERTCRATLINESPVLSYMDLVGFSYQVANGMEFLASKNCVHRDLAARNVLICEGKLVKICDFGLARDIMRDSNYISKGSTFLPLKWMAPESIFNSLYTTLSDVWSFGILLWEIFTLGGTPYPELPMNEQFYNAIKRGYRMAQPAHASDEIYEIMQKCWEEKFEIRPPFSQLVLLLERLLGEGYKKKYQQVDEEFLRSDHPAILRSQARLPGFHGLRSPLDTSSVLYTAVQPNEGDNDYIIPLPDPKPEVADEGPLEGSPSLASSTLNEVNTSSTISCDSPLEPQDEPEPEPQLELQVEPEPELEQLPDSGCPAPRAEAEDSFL

Row | Protein | in vitro cleavage of the biosensor in HEK293 lysate, Western blot with anti-GFP antibody
1 | human auto-activating MMP-9 (protein) APRQRQSTLVLFPGDLRTNLTDRQLAEEYLYRYGYTRVAEMRGESKSLGPALLLLQKQLSLPETGELDSATLKAMRTPRCLVPDLGRFQTFEGDLKWHHHNITYWIQNYSEDLPRAVIDDAFARAFALWSAVTPLTFTRVYSRDADIVIQFGVAEHGDGYPFDGKDGLLAHAFPPGPGIQGDAHFDDDELWSLGKGVVVPTRFGNADGAACHFPFIFEGRSYSACTTDGRSDGLPWCSTTANYDTDDRFGFCPSERLYTQDGNADGKPCQFPFIFQGQSYSACTTDGRSDGYRWCATTANYDRDKLFGFCPTRADSTVMGGNSAGELCVFPFTFLGKEYSTCTSEGRGDGRLWCATTSNFDSDKKWGFCPDQGYSLFLVAAHEFGHALGLDHSSVPEALMYPMYRFTEGPPLHKDDVNGIRHLYGPRPEPEPRPPTTTTPQPTAPPTVCPTGPPTVHPSERPTAGPTGPPSAGPTGPPTAGPSTATTVPLSPVDDACNVNIFDAIAEIGNQLYLFKDGKYWRFSEGRGSRPQGPFLIADKWPALPRKLDSVFEERLSKKLFFFSGRQVWVYTGASVLGPRRLDKLGLGADVAQVTGALRSGRGKMLLFSGRRLWRFDVKAQMVDPRSASEVDRMFPGVPLDTHDVFQYREKAYFCQDRFYWRVSSRSELNQVDQVGYVTYDILQCPED | The MMP-9 activity biosensor is cleaved in vitro by a human auto-activating MMP-9
2 | inactive human MMP-9 (protein) APRQRQSTLVLFPGDLRTNLTDRQLAEEYLYRYGYTRVAEMRGESKSLGPALLLLQKQLSLPETGELDSATLKAMRTPRCGVPDLGRFQTFEGDLKWHHHNITYWIQNYSEDLPRAVIDDAFARAFALWSAVTPLTFTRVYSRDADIVIQFGVAEHGDGYPFDGKDGLLAHAFPPGPGIQGDAHFDDDELWSLGKGVVVPTRFGNADGAACHFPFIFEGRSYSACTTDGRSDGLPWCSTTANYDTDDRFGFCPSERLYTQDGNADGKPCQFPFIFQGQSYSACTTDGRSDGYRWCATTANYDRDKLFGFCPTRADSTVMGGNSAGELCVFPFTFLGKEYSTCTSEGRGDGRLWCATTSNFDSDKKWGFCPDQGYSLFLVAAHEFGHALGLDHSSVPEALMYPMYRFTEGPPLHKDDVNGIRHLYGPRPEPEPRPPTTTTPQPTAPPTVCPTGPPTVHPSERPTAGPTGPPSAGPTGPPTAGPSTATTVPLSPVDDACNVNIFDAIAEIGNQLYLFKDGKYWRFSEGRGSRPQGPFLIADKWPALPRKLDSVFEERLSKKLFFFSGRQVWVYTGASVLGPRRLDKLGLGADVAQVTGALRSGRGKMLLFSGRRLWRFDVKAQMVDPRSASEVDRMFPGVPLDTHDVFQYREKAYFCQDRFYWRVSSRSELNQVDQVGYVTYDILQCPED | Inactive human MMP-9 does not cleave the biosensor

From US20160194681
